We go through two substances from article doi:10.1101/2020.06.09.141986.

This assay has as its target Aldob (aldolase B) (UniProt P05062). Nature of the assay: anti-Flag co-IP, immunoblot. As to conditions: reference: Akt1 wild type. (In general: A western blot detects proteins with antibodies after separation by electrophoresis.)

As for Akt1 (from UniProt P31749) Akt1-S473A, the “binding against the reference” value (sites S473) is “weaker”.
In the case of Akt1 (from UniProt P31749) Akt1-T308A, the “binding against the reference” value (sites T308) was “weaker”.
